Data set [1] has as its target T1, PeAAO2 (Pleurotus eryngii, UniProt D3YBH4).
T1 construct: no tag mentioned
Put plainly: direct UV assay of cuminaldehyde formation at […] nm, Michaelis-Menten fit. The format is biochemical. The note with it: 100 mM sodium phosphate pH 6.0, 25 °C; O2 as co-substrate; glycosylated enzyme; read-out: PeAAO2 from P. eryngii expressed in P. pastoris^a.

Data set [2] concerns the target T1, PeAAO2. Put plainly: direct UV assay of veratraldehyde formation at […] nm, Michaelis-Menten fit. The format is biochemical. The conditions noted are these: 100 mM sodium phosphate pH 6.0, 25 °C; O2 as co-substrate; glycosylated enzyme; read-out: PeAAO2 from P. eryngii expressed in P. pastoris^a.
Another data set concerns T2, OCc1ccc2c(c1)OCO2.
T2 construct: no tag mentioned
Put plainly: purified protein. The format is biochemical, Pleurotus eryngii. The conditions noted are these: 100 mM sodium phosphate pH 6.0, 25 °C, O2 as co-substrate, glycosylated enzyme.

The subject of the next data set is T3, OC/C=C/c1ccccc1.
T3 construct: no tag mentioned
Put plainly: purified protein. It counts as biochemical, Pleurotus eryngii. The note with it: 100 mM sodium phosphate pH 6.0, 25 °C, O2 as co-substrate, glycosylated enzyme, substrate in DMSO.

Another data set relates to T4, C/C=C/C=C/CO.
T4 construct: no tag mentioned
Put plainly: purified protein. It counts as biochemical, Pleurotus eryngii. The conditions noted are these: 100 mM sodium phosphate pH 6.0, 25 °C, O2 as co-substrate, glycosylated enzyme.

The next data set relates to T5, OCc1ccccc1.
T5 construct: no tag mentioned
Put plainly: purified protein. The format is biochemical, Pleurotus eryngii. The note with it: 100 mM sodium phosphate pH 6.0, 25 °C, O2 as co-substrate, glycosylated enzyme.

T1 sequence (D3YBH4 28-593 limits assumed): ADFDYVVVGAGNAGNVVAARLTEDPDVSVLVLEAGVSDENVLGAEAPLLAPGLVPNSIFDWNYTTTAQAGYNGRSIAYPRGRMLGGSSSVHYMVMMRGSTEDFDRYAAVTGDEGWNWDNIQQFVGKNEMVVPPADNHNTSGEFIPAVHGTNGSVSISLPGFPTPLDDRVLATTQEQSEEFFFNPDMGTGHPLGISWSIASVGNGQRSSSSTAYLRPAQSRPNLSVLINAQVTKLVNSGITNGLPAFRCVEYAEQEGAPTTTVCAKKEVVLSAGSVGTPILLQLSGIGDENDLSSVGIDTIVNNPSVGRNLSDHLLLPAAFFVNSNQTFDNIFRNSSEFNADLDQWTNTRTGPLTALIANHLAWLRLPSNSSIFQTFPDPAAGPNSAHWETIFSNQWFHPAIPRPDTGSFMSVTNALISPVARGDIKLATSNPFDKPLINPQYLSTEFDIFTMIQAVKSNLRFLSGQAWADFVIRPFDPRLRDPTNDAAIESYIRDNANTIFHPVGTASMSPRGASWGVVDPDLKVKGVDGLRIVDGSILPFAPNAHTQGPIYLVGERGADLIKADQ

With `CC(C)c1ccc(CO)cc1` [Cumic alcohol], the Km at PeAAO2 [1] amounted to 1910 ± 42.4 µM.
`COc1ccc(CO)cc1OC` [Veratryl alcohol]: the Km on PeAAO2 [2] turned out to be 447 ± 7.5 µM.
In the case of PeAAO2 (Pleurotus eryngii), the Km was determined as 59.1 ± 3.0 µM in the data set with OCc1ccc2c(c1)OCO2, 2740 ± 103 µM with OC/C=C/c1ccccc1, 143.6 ± 11.5 µM in the data set on C/C=C/C=C/CO and 599.6 ± 18.7 µM in the data set on OCc1ccccc1. Moreover, the kcat in the data set on OCc1ccc2c(c1)OCO2 is 35.5 ± 0.02 s⁻¹; in the data set on OC/C=C/c1ccccc1, 125.5 ± 0.1 s⁻¹; with C/C=C/C=C/CO it was 68.8 ± 0.05 s⁻¹; with OCc1ccccc1, 12.8 ± 0.01 s⁻¹. The kcat/Km in the data set with OCc1ccc2c(c1)OCO2 stood at 600000 M⁻¹ s⁻¹; with OC/C=C/c1ccccc1, 45800 M⁻¹ s⁻¹; in the data set on C/C=C/C=C/CO, 479000 M⁻¹ s⁻¹; with OCc1ccccc1 it was 21400 M⁻¹ s⁻¹.

Values taken from paper PMC7567689, “High-level expression of aryl-alcohol oxidase 2 from Pleurotus eryngii in Pichia pastoris for production of fragrances and bioactive precursors” (Applied Microbiology and Biotechnology, 2020).
